# Assay results reported in patent US12338268B2, “Compositions and methods for treating protein aggregation-associated diseases” (The Board of Trustees of the Leland Stanford Junior …, priority 2019, dated 2025).
# B1: NAC: nascent polypeptide-associated complex, heterodimer of αNAC and βNAC; species not given at the place (C. elegans icd-1/icd-2 when overexpressed in worms) (protein)
# chain 1: MTGSTETRQKEVKEPQVDVSDDSDNEAVEQELTEEQRRVAEAAGLGDHIDKQAKQSRSEKKARKLFSKLGLKQVTGVSRVCIRKSKNILFVINKPDVFKSPGSDTYIIFGEAKIEDLTQHAQMSAIENLKPTREAPQLKTVEEDENEDVEEDSTGIEEKDIELVISQANTTRNKAIRALKEADNDIVNAIMSLTM
# chain 2: MMDSKAIAERIKKLQAQQEHVRIGGKGTPRRKKKVIHKTAAADDKKLQSNLKKLSVTNIPGIEEVNMIKDDGTVIHFNNPKVQTSVPANTFSVTGSADNKQITEMLPGILNQLGPESLTHLKKLANNVTKLGPDGKGEDEDVPELVGDFDAASKNETKADEQ
# Tests used:
# [1] = tested on: PolyQ35::YFP; assay: PolyQ35::YFP aggregation in C. elegans overexpressing NAC (fluorescence microscopy, SDD-AGE); format: in vivo; settings: day 3 of adulthood
# Description: NAC is a major ribosome-binding factor interacting broadly with nascent chains (del Alamo et al., 2011). However, its assumed chaperone function is poorly investigated. […] Although loss of NAC causes pleiotropic defects in C. elegans (Gamerdinger et al., 2015), this finding raises the possibility that NAC directly exerts a chaperone function on aggregation-prone proteins. In this case, overexpression of NAC should prevent aggregation of PolyQ proteins in vivo. Therefore, we used a C. elegans strain expressing 35 consecutive glutamine residues fused to YFP (PolyQ35::YFP) in body wall muscle cells. This PolyQ length is close to the aggregation threshold in C. elegans muscle cells, leading to progressive, age-dependent aggregation starting at day 2 of adulthood (Morley et al., 2002). We generated transgenic animals that overexpress FLAG-tagged α- and βNAC under the control of the muscle-specific myo-3 promoter. PolyQ aggregation was assessed at day 3 of adulthood by fluorescence microscopy as well as semi-denaturing detergent agarose gel electrophoresis (SDD-AGE), which detects high molecular weight oligomeric PolyQ species (Halfmann and Lindquist, 2008). […] This is evident by magnification of the head regions showing diffuse PolyQ35::YFP and less punctate PolyQ35::YFP structures when NAC was overexpressed (FIG. 1A, head region images). […] To directly test the potential chaperone function of NAC, we employed a peptide composed of 51 consecutive glutamines (PolyQ51) as a model substrate in a well-established in vitro aggregation assay. We initiated aggregation of PolyQ51 by cleaving a solubilizing GST tag with TEV protease and detected aggregates over time using a filter trap assay.
# Worms were cultured according to standard techniques with E. coli OP50 as food source (Brenner, 1974). Transgenic strains were generated using standard microinjection protocols (Mello and Fire, 1995). […]
# [2] = target: T1, mutant Huntingtin exon 1 (mHttQ51) (Homo sapiens, UniProt P42858, INS38QQQQQQQQQQQQQQQQQQQQQQQQQQQQQQQ); assay: In vitro filter trap aggregation assay of mutant Huntingtin exon 1; format: biochemical
# T1 construct: mutant Huntingtin exon 1 containing a pathogenic stretch of 51 glutamines (mHttQ51); GST (N, cleaved yes); made in house; host or cells: E. coli Rosetta 2(DE3) pLysS
# Experimental: Mutant Huntingtin and PolyQ51 aggregation reactions were performed at concentration 3 μM of mHttQ51, 0.044 Units/μl acTEV protease (Invitrogen, Carlsbad, CA, USA), and respective concentrations of Ovalbumin (Sigma) or purified NAC chaperone variants. Aggregation was conducted in TEV reaction buffer (Invitrogen) and incubated at 30° C. AtxQ78 was buffer exchanged into TEV reaction buffer using 7K MWCO Zeba Spin Desalting Columns (Thermo Fisher) to initiate aggregation. AtxQ78 aggregation reactions were performed at 30 μM of Ataxin-3 in reaction buffer (20 mM sodium phosphate pH 7.5, 25 mM NaCl, 6 mM MgCl2, 2 mM DTT, 5% (v/v) glycerol) and incubated at 37° C. Samples at varied time-points were then taken and combined in a 1:1 ratio with a 4% (w/v) SDS, 100 mM DTT solution, boiled for 5 min at 95° C., and stored at −20° C. Samples were then filtered through a 0.22 μm cellulose acetate membrane (Whatman) and washed with 0.1% (w/v) SDS. Membrane was probed using an S-tag antibody (Abcam) for mHttQ51 and PolyQ51, and with a His-tag antibody (Abcam) for AtxQ78.
# T1 sequence (P42858 with tags, fused parts or gaps with the stated changes limits assumed): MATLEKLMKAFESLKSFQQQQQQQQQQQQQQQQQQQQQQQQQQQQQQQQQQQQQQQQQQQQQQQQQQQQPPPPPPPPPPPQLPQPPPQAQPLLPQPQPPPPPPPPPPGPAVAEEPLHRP
molecule,measurement,setting,value
B1,insoluble high molecular weight PolyQ35::YFP aggregate species,[1]; NAC overexpressing worms,less insoluble high molecular weight aggregate species
same,PolyQ35::YFP aggregation,"[1]; overexpressed in body wall muscle cells (myo-3 promoter), fluorescence microscopy",effectively suppressed PolyQ35::YFP aggregation
same,concentration dependence of mHttQ51 aggregation suppression,"[2]; 1×, 5× or 10× molar excess of human NAC",concentration dependent
same,disaggregation of preformed mHttQ51 aggregates,"[2]; 6-hour time delay between initiation of aggregation and addition, 5× molar excess",did not disaggregate preformed mHttQ51 aggregates
